Measured values: patent US6103692

Biological target: endogenous Ras (COS cells)

Myc-Raf (84-87A) (from UniProt P04049) (enzyme)
EGF or PMA-stimulated activation of Raf kinase in COS cells: > 85%
